Laboratory results reported in the Human Domainome abundance scans (Beltran et al. 2025).
± gives the uncertainty stated by the source.

B1: Zinc finger MYM-type protein 6, residues 427 to 504; numbered along this chain, O95789 (parent)
chain: KLKCQHCNHLFATKPELLFYKGKMFLFCGKNCSDEYKKKNKVVAMCDYCKLQKIIKETVRFSGVDKPFCSEVCKFLSA

Variants of: B1
Assay: abundance fitness (aPCA) (normalised: wild type 0, dead -1); higher = more abundant; growth selection in yeast, the domain comes from the species named
Conditions: Homo sapiens

Point of comparison: G29D, abundance fitness -0.386 ± 0.13. Against it:
- P67T — within error, -0.349 ± 0.28
- T13P — higher, -0.128 ± 0.044
- T13I — higher, 0.031 ± 0.075
- K53E — within error, -0.353 ± 0.13
- K53M — within error, -0.189 ± 0.21
- K53F — within error, 0.088 ± 0.36
- K53A — within error, -0.126 ± 0.13
- K53V — higher, -0.127 ± 0.11
- K23I — higher, -0.129 ± 0.067
- M24T — higher, 0.118 ± 0.046
- M24E — higher, 0.111 ± 0.036
- M24S — higher, 0.012 ± 0.048
- N40G — higher, -0.086 ± 0.04
- N40L — within error, -0.191 ± 0.077
- N40C — higher, -0.135 ± 0.052
- M45W — lower, -0.842 ± 0.25
- G63E — within error, -0.502 ± 0.17
- G63C — within error, -0.709 ± 0.23
- C32S — lower, -1.01 ± 0.2
- C32V — lower, -0.919 ± 0.1
- C32L — lower, -1.05 ± 0.22
- E71P — higher, -0.054 ± 0.16
- E71Q — within error, -0.194 ± 0.23
- F68P — higher, -0.113 ± 0.14
- C28Q — lower, -1.28 ± 0.48
- D65V — within error, -0.232 ± 0.1
- Y48P — lower, -0.801 ± 0.23
- Y48L — within error, -0.496 ± 0.11
- S33H — within error, -0.192 ± 0.081
- I55V — higher, 0.32 ± 0.07
- I55Q — within error, -0.185 ± 0.18
- K74Q — higher, -0.123 ± 0.13
- K74A — higher, -0.025 ± 0.12
- L26W — higher, -0.053 ± 0.032
- L26P — higher, -0.03 ± 0.04
- L26S — higher, 0.054 ± 0.032
- L26K — higher, 0.09 ± 0.04
- G29A — higher, -0.033 ± 0.029
- G29C — higher, -0.096 ± 0.052
- C49Q — higher, 0.123 ± 0.19
- C49R — within error, -0.242 ± 0.089
- E35D — higher, -0.047 ± 0.064
- A44S — within error, -0.282 ± 0.12
- Q5P — within error, -0.204 ± 0.061
- K30Q — higher, -0.096 ± 0.055
- L76R — higher, 0.209 ± 0.073
- L76C — higher, 0.183 ± 0.18
- L17W — higher, 0.065 ± 0.03
- L17S — higher, 0.117 ± 0.04
- C46M — within error, -0.159 ± 0.12
- C46R — within error, -0.331 ± 0.099
- C46W — higher, 0.056 ± 0.11
- K38D — higher, -0.114 ± 0.068
- K38L — higher, -0.088 ± 0.043
- K38S — higher, -0.027 ± 0.038
- C69M — within error, -0.443 ± 0.16
- N8Y — within error, -0.264 ± 0.071
- F25W — higher, -0.027 ± 0.035
- F25L — higher, 0.043 ± 0.03
- F19T — higher, -0.03 ± 0.037
- F19G — higher, -0.053 ± 0.03
- K21W — higher, -0.133 ± 0.038
- K21N — higher, -0.03 ± 0.033
- K21L — higher, -0.007 ± 0.032
- D34W — higher, -0.156 ± 0.035
- D34L — higher, -0.14 ± 0.038
- K1C — higher, -0.147 ± 0.048
- K1V — within error, -0.355 ± 0.039
- K1W — within error, -0.536 ± 0.038
- L10V — higher, -0.002 ± 0.029
- C73W — lower, -0.751 ± 0.21
- H9Y — within error, 0.015 ± 0.49
- H9E — higher, -0.028 ± 0.035
- H9R — higher, 0.037 ± 0.029
- H9P — lower, -0.69 ± 0.07
- H9W — higher, -0.069 ± 0.038
- H9V — higher, 0.032 ± 0.032
- H9K — higher, 0.034 ± 0.053
- H9G — higher, 0.014 ± 0.028
- V59E — higher, -0.053 ± 0.13
- N31L — higher, -0.067 ± 0.035
- K66Y — higher, 0.215 ± 0.33
- F27Q — within error, -0.527 ± 0.054
- F27D — within error, -0.553 ± 0.062
- H6A — higher, -0.043 ± 0.031
- H6W — higher, -0.102 ± 0.032
- H6T — higher, -0.079 ± 0.11
- H6C — higher, -0.046 ± 0.056
- K50H — within error, -0.427 ± 0.43
- K50G — within error, -0.228 ± 0.076
- K50T — within error, -0.687 ± 0.45
- K50E — within error, -0.363 ± 0.14
- K37M — within error, -0.214 ± 0.15
- K37D — higher, -0.057 ± 0.065
- K37V — higher, -0.029 ± 0.03
- K37L — higher, -0.134 ± 0.035
- Q52V — higher, 0.173 ± 0.092
- Q52R — higher, 0.061 ± 0.071
- Y20C — higher, -0.023 ± 0.082
- I54S — higher, 0.174 ± 0.18
- I54Q — higher, 0.52 ± 0.08
- C4A — lower, -0.74 ± 0.04
- C4P — lower, -0.681 ± 0.14
- G22S — higher, -0.049 ± 0.048
- G22E — higher, 0.049 ± 0.057
- A78E — within error, -0.067 ± 0.31
- A78R — within error, -0.142 ± 0.15
- A12C — higher, -0.096 ± 0.05
- A12W — higher, -0.134 ± 0.036
- E57L — within error, -0.711 ± 0.25
- E57Q — within error, -0.289 ± 0.38
- D47L — higher, 0.177 ± 0.066
- D47Q — within error, -0.106 ± 0.2
- D47W — higher, 0.424 ± 0.072
- R60E — higher, 0.008 ± 0.24
- P15A — higher, -0.075 ± 0.03
- P15E — higher, -0.083 ± 0.043
- P15R — higher, -0.119 ± 0.029
- P15H — higher, -0.213 ± 0.039
- P15D — higher, -0.03 ± 0.041
- V72H — within error, 0.016 ± 0.33
- V72R — higher, 0.411 ± 0.066
- V72Y — higher, 0.757 ± 0.3
- V72Q — higher, 0.562 ± 0.086
- V72S — higher, 0.239 ± 0.092
- L18V — higher, -0.02 ± 0.037
- L18Q — higher, -0.042 ± 0.068
- S77N — within error, -0.434 ± 0.25
- S77D — within error, -0.14 ± 0.17
- K39W — higher, -0.099 ± 0.036
- K39C — higher, -0.163 ± 0.063
- L51C — higher, 0.49 ± 0.13
- L51W — lower, -0.806 ± 0.13
- L51A — higher, 0.187 ± 0.077
- S62W — within error, -0.696 ± 0.24
- S62L — within error, -0.19 ± 0.2
- S62Y — higher, 0.176 ± 0.15
- S62G — higher, 0.327 ± 0.07
- K56Q — higher, -0.044 ± 0.14
- Y36K — lower, -0.661 ± 0.12
- Y36D — within error, -0.453 ± 0.088
- Y36Q — higher, -0.13 ± 0.056
- C7T — lower, -0.792 ± 0.089
- C7E — lower, -0.722 ± 0.066
- C7F — lower, -0.845 ± 0.25
- V64Q — higher, -0.009 ± 0.11
- V64K — within error, -0.298 ± 0.24
- V64G — higher, 0.046 ± 0.063
- S70Y — within error, -0.673 ± 0.48
- S70K — within error, -0.635 ± 0.39
- S70D — within error, -0.498 ± 0.19
- S70V — lower, -1.05 ± 0.16
- K3F — higher, -0.116 ± 0.055
- K3Q — higher, -0.032 ± 0.038
- K3H — higher, -0.156 ± 0.096
- K3L — higher, -0.073 ± 0.036
- F61E — higher, 0.298 ± 0.083
- F61T — higher, 0.348 ± 0.086
- F61H — within error, -0.151 ± 0.41
- F11W — higher, -0.207 ± 0.033
- F11M — higher, -0.134 ± 0.054
- F11K — higher, -0.13 ± 0.064
- L2C — higher, -0.089 ± 0.042
- L2D — higher, 0.069 ± 0.054
- T58R — higher, 0.019 ± 0.071
- T58Y — higher, 0.177 ± 0.41
